Reference: US20140206609A1 (Sanofi, published 2014)
*1 amine or outer side, *2 acyl side, *3 side chain or, on linkers, in order; H or OH if unused. Where no end group is shown, it is not given here. Side-chain parts run from the residue outwards. [ ]: non-standard residue; d: D form. The star is where a group is joined. γGlu = O=C(O)[C@H](CCC(=O)[*:2])N[*:1]; Stearoyl = CCCCCCCCCCCCCCCCCC(=O)*; Palmitoyl = CCCCCCCCCCCCCCCC(=O)*; Aib = CC(C)(N)C(=O)O; GABA = NCCCC(=O)O

Tests used:
Assay in all cases: cell-based or functional assay
human GLP-1 receptor = human GLP-1 receptor (human, UniProt P43220 24-463)
human GIP receptor = biological target: T1, human GIP receptor (human, UniProt P48546 22-466)
T1 sequence (looked up): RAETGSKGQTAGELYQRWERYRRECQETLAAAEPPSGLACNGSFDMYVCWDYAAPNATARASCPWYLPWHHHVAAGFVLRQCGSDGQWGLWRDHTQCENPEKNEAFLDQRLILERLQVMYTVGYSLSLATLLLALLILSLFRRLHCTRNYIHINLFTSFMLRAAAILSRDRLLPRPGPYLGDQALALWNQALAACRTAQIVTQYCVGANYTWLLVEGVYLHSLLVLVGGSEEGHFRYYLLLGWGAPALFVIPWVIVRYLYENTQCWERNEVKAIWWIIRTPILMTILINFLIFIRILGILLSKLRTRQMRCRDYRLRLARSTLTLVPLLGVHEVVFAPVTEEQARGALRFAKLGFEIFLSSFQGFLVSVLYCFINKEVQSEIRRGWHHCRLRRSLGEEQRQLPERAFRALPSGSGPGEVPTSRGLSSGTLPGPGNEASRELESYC

human glucagon receptor = human glucagon receptor (human, UniProt P47871 26-477)
Chain of human glucagon receptor (P47871 26-477): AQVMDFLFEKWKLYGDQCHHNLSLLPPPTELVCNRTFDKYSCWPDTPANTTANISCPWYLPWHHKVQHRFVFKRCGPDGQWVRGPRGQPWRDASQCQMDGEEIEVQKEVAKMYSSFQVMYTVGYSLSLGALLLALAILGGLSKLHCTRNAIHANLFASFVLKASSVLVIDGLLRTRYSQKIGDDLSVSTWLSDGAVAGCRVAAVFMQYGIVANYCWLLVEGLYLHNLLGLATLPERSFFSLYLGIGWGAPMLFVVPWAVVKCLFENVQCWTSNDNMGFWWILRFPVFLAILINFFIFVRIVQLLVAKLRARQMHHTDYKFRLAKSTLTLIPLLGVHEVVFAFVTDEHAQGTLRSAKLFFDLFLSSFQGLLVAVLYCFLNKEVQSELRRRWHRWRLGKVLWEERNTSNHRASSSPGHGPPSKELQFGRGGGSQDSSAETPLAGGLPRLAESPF

B1: SEQ ID NO: 11 (peptide)
peptide: Y[Aib]EGTFTSDLSIQK([γGlu-Palmitoyl])DKRAA[Aib]DFIEWLKAGGPSSGAPPPS-NH2
modifications: N-terminus assumed
SMILES: CCCCCCCCCCCCCCCC(=O)N[C@@H](CCC(=O)NCCCC[C@H](NC(=O)[C@H](CCC(N)=O)NC(=O)[C@@H](NC(=O)[C@H](CO)NC(=O)[C@H](CC(C)C)NC(=O)[C@H](CC(=O)O)NC(=O)[C@H](CO)NC(=O)[C@@H](NC(=O)[C@H](Cc1ccccc1)NC(=O)[C@@H](NC(=O)CNC(=O)[C@H](CCC(=O)O)NC(=O)C(C)(C)NC(=O)[C@@H](N)Cc1ccc(O)cc1)[C@@H](C)O)[C@@H](C)O)[C@@H](C)CC)C(=O)N[C@@H](CC(=O)O)C(=O)N[C@@H](CCCCN)C(=O)N[C@@H](CCCNC(=N)N)C(=O)N[C@@H](C)C(=O)N[C@@H](C)C(=O)NC(C)(C)C(=O)N[C@@H](CC(=O)O)C(=O)N[C@@H](Cc1ccccc1)C(=O)N[C@H](C(=O)N[C@@H](CCC(=O)O)C(=O)N[C@@H](Cc1c[nH]c2ccccc12)C(=O)N[C@@H](CC(C)C)C(=O)N[C@@H](CCCCN)C(=O)N[C@@H](C)C(=O)NCC(=O)NCC(=O)N1CCC[C@H]1C(=O)N[C@@H](CO)C(=O)N[C@@H](CO)C(=O)NCC(=O)N[C@@H](C)C(=O)N1CCC[C@H]1C(=O)N1CCC[C@H]1C(=O)N1CCC[C@H]1C(=O)N[C@@H](CO)C(N)=O)[C@@H](C)CC)C(=O)O
- EC50 hGLP-1 R [pM] (human GLP-1 receptor): 11.5 pM
- EC50 hGIP R [pM] (human GIP receptor): 3.2 pM
- EC50 hGLUC R [pM] (human glucagon receptor): 7220 pM

B2: SEQ ID NO: 16 (peptide)
peptide: Y[Aib]EGTFTSDLSIQK([γGlu-γGlu-Stearoyl])EKRAA[Aib]EFIEWLKNTGPSSGAPPPS-NH2
modifications: N-terminus assumed
SMILES: CCCCCCCCCCCCCCCCCC(=O)N[C@@H](CCC(=O)N[C@@H](CCC(=O)NCCCC[C@H](NC(=O)[C@H](CCC(N)=O)NC(=O)[C@@H](NC(=O)[C@H](CO)NC(=O)[C@H](CC(C)C)NC(=O)[C@H](CC(=O)O)NC(=O)[C@H](CO)NC(=O)[C@@H](NC(=O)[C@H](Cc1ccccc1)NC(=O)[C@@H](NC(=O)CNC(=O)[C@H](CCC(=O)O)NC(=O)C(C)(C)NC(=O)[C@@H](N)Cc1ccc(O)cc1)[C@@H](C)O)[C@@H](C)O)[C@@H](C)CC)C(=O)N[C@@H](CCC(=O)O)C(=O)N[C@@H](CCCCN)C(=O)N[C@@H](CCCNC(=N)N)C(=O)N[C@@H](C)C(=O)N[C@@H](C)C(=O)NC(C)(C)C(=O)N[C@@H](CCC(=O)O)C(=O)N[C@@H](Cc1ccccc1)C(=O)N[C@H](C(=O)N[C@@H](CCC(=O)O)C(=O)N[C@@H](Cc1c[nH]c2ccccc12)C(=O)N[C@@H](CC(C)C)C(=O)N[C@@H](CCCCN)C(=O)N[C@@H](CC(N)=O)C(=O)N[C@H](C(=O)NCC(=O)N1CCC[C@H]1C(=O)N[C@@H](CO)C(=O)N[C@@H](CO)C(=O)NCC(=O)N[C@@H](C)C(=O)N1CCC[C@H]1C(=O)N1CCC[C@H]1C(=O)N1CCC[C@H]1C(=O)N[C@@H](CO)C(N)=O)[C@@H](C)O)[C@@H](C)CC)C(=O)O)C(=O)O
- EC50 hGLP-1 R [pM] (human GLP-1 receptor): 4 pM
- EC50 hGIP R [pM] (human GIP receptor): 5.1 pM
- EC50 hGLUC R [pM] (human glucagon receptor): 2890 pM

B3: SEQ ID NO: 13 (peptide)
peptide: Y[Aib]QGTFTSDLSIQK([γGlu-Palmitoyl])DSRAAQDFIEWLKNGGPSSGAPPPS-NH2
modifications: N-terminus assumed
SMILES: CCCCCCCCCCCCCCCC(=O)N[C@@H](CCC(=O)NCCCC[C@H](NC(=O)[C@H](CCC(N)=O)NC(=O)[C@@H](NC(=O)[C@H](CO)NC(=O)[C@H](CC(C)C)NC(=O)[C@H](CC(=O)O)NC(=O)[C@H](CO)NC(=O)[C@@H](NC(=O)[C@H](Cc1ccccc1)NC(=O)[C@@H](NC(=O)CNC(=O)[C@H](CCC(N)=O)NC(=O)C(C)(C)NC(=O)[C@@H](N)Cc1ccc(O)cc1)[C@@H](C)O)[C@@H](C)O)[C@@H](C)CC)C(=O)N[C@@H](CC(=O)O)C(=O)N[C@@H](CO)C(=O)N[C@@H](CCCNC(=N)N)C(=O)N[C@@H](C)C(=O)N[C@@H](C)C(=O)N[C@@H](CCC(N)=O)C(=O)N[C@@H](CC(=O)O)C(=O)N[C@@H](Cc1ccccc1)C(=O)N[C@H](C(=O)N[C@@H](CCC(=O)O)C(=O)N[C@@H](Cc1c[nH]c2ccccc12)C(=O)N[C@@H](CC(C)C)C(=O)N[C@@H](CCCCN)C(=O)N[C@@H](CC(N)=O)C(=O)NCC(=O)NCC(=O)N1CCC[C@H]1C(=O)N[C@@H](CO)C(=O)N[C@@H](CO)C(=O)NCC(=O)N[C@@H](C)C(=O)N1CCC[C@H]1C(=O)N1CCC[C@H]1C(=O)N1CCC[C@H]1C(=O)N[C@@H](CO)C(N)=O)[C@@H](C)CC)C(=O)O
- EC50 hGLP-1 R [pM] (human GLP-1 receptor): 7.3 pM
- EC50 hGIP R [pM] (human GIP receptor): 71 pM
- EC50 hGLUC R [pM] (human glucagon receptor): 31.3 pM

B4: SEQ ID NO: 17 (peptide)
peptide: Y[Aib]EGTFTSDLSIQK([GABA-Stearoyl])EKRAA[Aib]EFIEWLKNTGPSSGAPPPS-NH2
modifications: N-terminus assumed
SMILES: CCCCCCCCCCCCCCCCCC(=O)NCCCC(=O)NCCCC[C@H](NC(=O)[C@H](CCC(N)=O)NC(=O)[C@@H](NC(=O)[C@H](CO)NC(=O)[C@H](CC(C)C)NC(=O)[C@H](CC(=O)O)NC(=O)[C@H](CO)NC(=O)[C@@H](NC(=O)[C@H](Cc1ccccc1)NC(=O)[C@@H](NC(=O)CNC(=O)[C@H](CCC(=O)O)NC(=O)C(C)(C)NC(=O)[C@@H](N)Cc1ccc(O)cc1)[C@@H](C)O)[C@@H](C)O)[C@@H](C)CC)C(=O)N[C@@H](CCC(=O)O)C(=O)N[C@@H](CCCCN)C(=O)N[C@@H](CCCNC(=N)N)C(=O)N[C@@H](C)C(=O)N[C@@H](C)C(=O)NC(C)(C)C(=O)N[C@@H](CCC(=O)O)C(=O)N[C@@H](Cc1ccccc1)C(=O)N[C@H](C(=O)N[C@@H](CCC(=O)O)C(=O)N[C@@H](Cc1c[nH]c2ccccc12)C(=O)N[C@@H](CC(C)C)C(=O)N[C@@H](CCCCN)C(=O)N[C@@H](CC(N)=O)C(=O)N[C@H](C(=O)NCC(=O)N1CCC[C@H]1C(=O)N[C@@H](CO)C(=O)N[C@@H](CO)C(=O)NCC(=O)N[C@@H](C)C(=O)N1CCC[C@H]1C(=O)N1CCC[C@H]1C(=O)N1CCC[C@H]1C(=O)N[C@@H](CO)C(N)=O)[C@@H](C)O)[C@@H](C)CC
- EC50 hGLP-1 R [pM] (human GLP-1 receptor): 8.7 pM
- EC50 hGIP R [pM] (human GIP receptor): 9.6 pM
- EC50 hGLUC R [pM] (human glucagon receptor): 9740 pM

B5: SEQ ID NO: 12 (peptide)
peptide: Y[Aib]EGTFTSDLSIQK([γGlu-Palmitoyl])DKRAAQDFIEWLKNGGPSSGAPPPS-NH2
modifications: N-terminus assumed
SMILES: CCCCCCCCCCCCCCCC(=O)N[C@@H](CCC(=O)NCCCC[C@H](NC(=O)[C@H](CCC(N)=O)NC(=O)[C@@H](NC(=O)[C@H](CO)NC(=O)[C@H](CC(C)C)NC(=O)[C@H](CC(=O)O)NC(=O)[C@H](CO)NC(=O)[C@@H](NC(=O)[C@H](Cc1ccccc1)NC(=O)[C@@H](NC(=O)CNC(=O)[C@H](CCC(=O)O)NC(=O)C(C)(C)NC(=O)[C@@H](N)Cc1ccc(O)cc1)[C@@H](C)O)[C@@H](C)O)[C@@H](C)CC)C(=O)N[C@@H](CC(=O)O)C(=O)N[C@@H](CCCCN)C(=O)N[C@@H](CCCNC(=N)N)C(=O)N[C@@H](C)C(=O)N[C@@H](C)C(=O)N[C@@H](CCC(N)=O)C(=O)N[C@@H](CC(=O)O)C(=O)N[C@@H](Cc1ccccc1)C(=O)N[C@H](C(=O)N[C@@H](CCC(=O)O)C(=O)N[C@@H](Cc1c[nH]c2ccccc12)C(=O)N[C@@H](CC(C)C)C(=O)N[C@@H](CCCCN)C(=O)N[C@@H](CC(N)=O)C(=O)NCC(=O)NCC(=O)N1CCC[C@H]1C(=O)N[C@@H](CO)C(=O)N[C@@H](CO)C(=O)NCC(=O)N[C@@H](C)C(=O)N1CCC[C@H]1C(=O)N1CCC[C@H]1C(=O)N1CCC[C@H]1C(=O)N[C@@H](CO)C(N)=O)[C@@H](C)CC)C(=O)O
- EC50 hGLP-1 R [pM] (human GLP-1 receptor): 12.7 pM
- EC50 hGIP R [pM] (human GIP receptor): 8.9 pM
- EC50 hGLUC R [pM] (human glucagon receptor): 1890 pM

B6: SEQ ID NO: 14 (peptide)
peptide: Y[Aib]EGTFTSDLSIQK([γGlu-Stearoyl])EKRAAQEFIEWLKAGGPSSGAPPPS-NH2
modifications: N-terminus assumed
SMILES: CCCCCCCCCCCCCCCCCC(=O)N[C@@H](CCC(=O)NCCCC[C@H](NC(=O)[C@H](CCC(N)=O)NC(=O)[C@@H](NC(=O)[C@H](CO)NC(=O)[C@H](CC(C)C)NC(=O)[C@H](CC(=O)O)NC(=O)[C@H](CO)NC(=O)[C@@H](NC(=O)[C@H](Cc1ccccc1)NC(=O)[C@@H](NC(=O)CNC(=O)[C@H](CCC(=O)O)NC(=O)C(C)(C)NC(=O)[C@@H](N)Cc1ccc(O)cc1)[C@@H](C)O)[C@@H](C)O)[C@@H](C)CC)C(=O)N[C@@H](CCC(=O)O)C(=O)N[C@@H](CCCCN)C(=O)N[C@@H](CCCNC(=N)N)C(=O)N[C@@H](C)C(=O)N[C@@H](C)C(=O)N[C@@H](CCC(N)=O)C(=O)N[C@@H](CCC(=O)O)C(=O)N[C@@H](Cc1ccccc1)C(=O)N[C@H](C(=O)N[C@@H](CCC(=O)O)C(=O)N[C@@H](Cc1c[nH]c2ccccc12)C(=O)N[C@@H](CC(C)C)C(=O)N[C@@H](CCCCN)C(=O)N[C@@H](C)C(=O)NCC(=O)NCC(=O)N1CCC[C@H]1C(=O)N[C@@H](CO)C(=O)N[C@@H](CO)C(=O)NCC(=O)N[C@@H](C)C(=O)N1CCC[C@H]1C(=O)N1CCC[C@H]1C(=O)N1CCC[C@H]1C(=O)N[C@@H](CO)C(N)=O)[C@@H](C)CC)C(=O)O
- EC50 hGLP-1 R [pM] (human GLP-1 receptor): 4.3 pM
- EC50 hGIP R [pM] (human GIP receptor): 4.4 pM
- EC50 hGLUC R [pM] (human glucagon receptor): 3760 pM
